# Assay results taken from paper PMC5892938, “SARNAclust: Semi-automatic detection of RNA protein binding motifs from immunoprecipitation data”.
# Biological target: GST-SBP-SLBP (stem-loop binding protein) (Homo sapiens, UniProt Q14493 1-270)
# Assay: EMSA; 320 nM protein, 1 nM RNA, 1 mM Mg2+; EMSA: 10 mM HEPES pH 7.3, 20 mM KCl, 1 mM MgCl2, 20 mM DTT, 5% glycerol, 30 min, 4°C. RBNS: 25 mM Tris pH 7.5, 150 mM KCl, 0.1% Tween, 0.5 mg/mL BSA, 3 mM MgCl2, 1 mM DTT
# Settings: protein: recombinant; tags: N-terminal GST and SBP (pGEX6P1-SBP); label: 3' biotin; hairpin
row,Binder,binding result
1,Consensus Loop Only A (CLA) (structured_RNA) RNA: GGUCACGUCUCAAUCAACUCAUCCCCAGGAGUUUACUCCUGUUUAGUCAACAGCUCGCAGUCAAG,no binding
2,Consensus Loop Only B (CLB) (structured_RNA) RNA: GGUCACGUCUCAAUCAACUCAACUCCAGGAGUUUACUCCUGUAAUCUCAACAGCUCGCAGUCAAG,no binding
